Legend:
[1] = molecular target: PA-tagged SORLA VPS10p-domain (1 to 753), T659C mutant (human) (UniProt Q92673); assay: cross-linking
[2] = molecular target: SORLA dimer of SORLA-V1 and SORLA-V2 with reconstituted Venus (human) (UniProt Q92673); assay: co-IP

Chain of UniProt Q92673 (Q92673 82-2214, chain 1 of 2): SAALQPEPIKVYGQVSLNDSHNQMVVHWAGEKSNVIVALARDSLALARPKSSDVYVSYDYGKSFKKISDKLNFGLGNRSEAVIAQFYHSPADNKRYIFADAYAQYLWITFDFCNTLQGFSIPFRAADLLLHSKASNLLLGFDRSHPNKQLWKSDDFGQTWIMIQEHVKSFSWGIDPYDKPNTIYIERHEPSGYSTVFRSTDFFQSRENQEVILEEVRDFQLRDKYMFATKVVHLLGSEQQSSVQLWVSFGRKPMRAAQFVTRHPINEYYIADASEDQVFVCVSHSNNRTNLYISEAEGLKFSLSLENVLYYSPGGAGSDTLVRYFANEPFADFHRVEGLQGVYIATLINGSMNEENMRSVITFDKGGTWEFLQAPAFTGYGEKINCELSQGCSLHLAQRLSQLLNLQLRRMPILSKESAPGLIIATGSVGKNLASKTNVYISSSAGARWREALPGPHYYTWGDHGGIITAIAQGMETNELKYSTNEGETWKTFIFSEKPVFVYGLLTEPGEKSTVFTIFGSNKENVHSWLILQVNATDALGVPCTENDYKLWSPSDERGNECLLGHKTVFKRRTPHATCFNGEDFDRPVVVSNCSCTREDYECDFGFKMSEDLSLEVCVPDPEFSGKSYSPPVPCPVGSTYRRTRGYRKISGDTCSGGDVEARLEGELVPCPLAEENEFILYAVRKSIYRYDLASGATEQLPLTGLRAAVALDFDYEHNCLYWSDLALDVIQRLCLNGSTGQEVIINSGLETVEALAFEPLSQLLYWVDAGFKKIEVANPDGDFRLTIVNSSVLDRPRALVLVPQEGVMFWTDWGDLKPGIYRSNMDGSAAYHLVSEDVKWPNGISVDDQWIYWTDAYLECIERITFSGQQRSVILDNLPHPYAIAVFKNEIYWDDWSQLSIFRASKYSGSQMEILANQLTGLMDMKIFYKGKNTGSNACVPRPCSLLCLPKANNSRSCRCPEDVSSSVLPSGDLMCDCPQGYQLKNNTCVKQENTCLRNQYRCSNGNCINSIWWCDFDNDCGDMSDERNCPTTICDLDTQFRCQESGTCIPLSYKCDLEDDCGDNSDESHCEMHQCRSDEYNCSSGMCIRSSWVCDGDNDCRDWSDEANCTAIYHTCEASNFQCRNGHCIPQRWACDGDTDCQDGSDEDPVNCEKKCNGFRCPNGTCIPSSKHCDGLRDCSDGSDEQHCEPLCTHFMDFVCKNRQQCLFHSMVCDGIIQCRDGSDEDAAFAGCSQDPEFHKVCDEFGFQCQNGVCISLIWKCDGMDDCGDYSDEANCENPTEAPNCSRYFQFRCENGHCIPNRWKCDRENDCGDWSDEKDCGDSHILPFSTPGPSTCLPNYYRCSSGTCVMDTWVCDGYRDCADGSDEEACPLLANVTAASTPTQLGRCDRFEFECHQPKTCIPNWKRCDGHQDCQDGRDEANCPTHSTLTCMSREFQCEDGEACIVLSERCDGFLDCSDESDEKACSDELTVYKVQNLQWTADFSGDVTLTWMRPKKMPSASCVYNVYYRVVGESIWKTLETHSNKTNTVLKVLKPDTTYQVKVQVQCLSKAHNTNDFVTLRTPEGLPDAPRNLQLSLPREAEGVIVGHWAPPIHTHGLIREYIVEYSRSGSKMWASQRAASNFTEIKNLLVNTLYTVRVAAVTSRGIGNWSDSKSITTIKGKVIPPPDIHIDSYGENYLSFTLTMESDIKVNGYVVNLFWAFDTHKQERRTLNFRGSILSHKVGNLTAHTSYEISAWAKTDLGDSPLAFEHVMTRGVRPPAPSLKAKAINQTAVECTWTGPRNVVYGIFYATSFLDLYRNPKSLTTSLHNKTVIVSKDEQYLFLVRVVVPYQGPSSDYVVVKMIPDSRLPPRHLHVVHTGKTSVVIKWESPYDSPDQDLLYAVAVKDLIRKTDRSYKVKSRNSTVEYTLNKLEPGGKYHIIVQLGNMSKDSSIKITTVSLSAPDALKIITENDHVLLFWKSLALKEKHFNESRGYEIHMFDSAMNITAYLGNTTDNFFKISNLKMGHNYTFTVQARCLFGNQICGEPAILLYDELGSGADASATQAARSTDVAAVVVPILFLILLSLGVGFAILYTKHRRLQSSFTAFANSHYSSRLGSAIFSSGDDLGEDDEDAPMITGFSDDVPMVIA
Chain of UniProt Q92673 (Q92673 82-2214, chain 2 of 2): as the sequence (Q92673 82-2214, chain 1 of 2) above

Substance | stoichiometry N [1] | co-IP product relative to total input [2] [%]
PA-tagged SORLA VPS10p-domain (1 to 753), T659C mutant (from UniProt Q92673 29-753) (domain or fragment) | 2 | –
VPS26b subunit of retromer (from UniProt Q4G0F5 1-336) (natural protein) | – | 6
